In paper PMC6791870, “Switch of the interactions between the ribosomal stalk and EF1A in the GTP- and GDP-bound conformations” (Scientific Reports, 2019) one finds Kd data, which are given here for one molecule.

As usually defined, the Kd is a measure of binding affinity in units of concentration. Lower therefore signals higher affinity.

Assay in all cases: fluorescence polarisation; FITC-labeled PhoP1C14 peptide (50 nM) mixed with 0-160 µM of the complex of each PhoEF1A mutant, GTP and PfuPelota; 20 mM HEPES-KOH pH 7.6, 10 mM MgCl2, 150 mM KCl, 0.1 mg/ml BSA; 25 °C; nonlinear regression, one site specific binding (GraphPad Prism 6); average of three replicates
What all share (conditions): both partners purified

The target of test [1] is T1, PhoEF1A R132A•GTP•PfuPelota complex (Pyrococcus horikoshii | Pyrococcus …, UniProt O59153 1-428, R132A).
T1 construct: elongation factor aEF1A of Pyrococcus horikoshii (PhoEF1A); complex of the EF1A mutant, GTP and PfuPelota; also called R132(R140)A; P. horikoshii aEF1A-R132A
T1 sequence 1: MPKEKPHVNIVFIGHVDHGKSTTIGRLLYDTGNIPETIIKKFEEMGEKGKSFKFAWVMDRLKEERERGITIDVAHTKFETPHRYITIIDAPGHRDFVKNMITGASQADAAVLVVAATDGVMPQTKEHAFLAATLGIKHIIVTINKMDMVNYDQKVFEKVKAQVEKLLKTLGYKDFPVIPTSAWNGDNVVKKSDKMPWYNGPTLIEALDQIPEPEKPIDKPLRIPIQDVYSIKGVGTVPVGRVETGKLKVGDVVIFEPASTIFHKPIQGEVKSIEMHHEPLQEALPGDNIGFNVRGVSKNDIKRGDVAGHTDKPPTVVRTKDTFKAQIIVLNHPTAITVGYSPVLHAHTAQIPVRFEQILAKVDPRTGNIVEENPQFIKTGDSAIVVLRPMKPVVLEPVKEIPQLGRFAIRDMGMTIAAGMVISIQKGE
T1 sequence 2: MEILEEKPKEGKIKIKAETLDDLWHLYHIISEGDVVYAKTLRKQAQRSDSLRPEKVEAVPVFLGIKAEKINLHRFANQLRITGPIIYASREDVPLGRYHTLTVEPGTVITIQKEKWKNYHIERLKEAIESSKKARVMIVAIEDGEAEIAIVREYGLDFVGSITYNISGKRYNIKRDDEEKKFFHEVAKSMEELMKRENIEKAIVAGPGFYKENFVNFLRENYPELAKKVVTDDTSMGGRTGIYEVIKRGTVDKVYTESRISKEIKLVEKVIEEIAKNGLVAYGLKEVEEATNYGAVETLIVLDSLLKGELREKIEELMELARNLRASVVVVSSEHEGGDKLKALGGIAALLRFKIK

The target of test [2] is T2, PhoEF1A Q326A•GTP•PfuPelota complex (Pyrococcus horikoshii | Pyrococcus …, UniProt O59153 1-428, Q326A).
T2 construct: elongation factor aEF1A of Pyrococcus horikoshii (PhoEF1A); complex of the EF1A mutant, GTP and PfuPelota; also called Q326(R329)A; P. horikoshii aEF1A-Q326A
T2 sequence 1: T1 sequence 1 with A132R, Q326A
T2 sequence 2: T1 sequence 2

For test [3], the target named is T3, PhoEF1A R406A•GTP•PfuPelota complex (Pyrococcus horikoshii | Pyrococcus …, UniProt O59153 1-428, R406A).
T3 construct: elongation factor aEF1A of Pyrococcus horikoshii (PhoEF1A); complex of the EF1A mutant, GTP and PfuPelota; also called R406(R409)A; P. horikoshii aEF1A-R406A
T3 sequence 1: T1 sequence 1 with A132R, R406A
T3 sequence 2: T1 sequence 2

Numbering of substitutions follows the chain as printed. Primed or numbered codes have the meaning given here. Where no end group is shown, it is not given here. FITC′ = fluorescein isothiocyanate label

B1: FITC-labeled C-terminal 14-mer peptide of P. horikoshii aP1 (PhoP1C14) (peptide)
peptide: {FITC′}-SEEEALAGLSALFG
notes: also called FITC-labeled peptide of PhoP1C14; source: synthetic peptide (Hokkaido System Science Co., Ltd)
On to B1, for which the Kd in test [1] worked out at 87.8 ± 12 µM; in test [2], 11.1 ± 0.8 µM; in test [3] it was 33 ± 2.1 µM.
